Measured values published in the nanobody polyreactivity screen of Harvey et al. (2022).

test: yeast display, Sf9 membrane polyspecificity reagent, FACS + sequencing; frameworks hold sequencing errors
Summary of the method: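 Genes from sorted yeast were amplified by colony PCR, read by MiSeq 2 × 250 sequencing and filtered on CDR length. These cells carried a synthetic nanobody library in Saccharomyces cerevisiae BJ5465 and were sorted by FACS into low and high (top ~1%) gates on anti-HA and streptavidin fluorescence. Polyreactivity is labelled according to the gate of origin.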

**Q.** Which “polyreactivity (PSR sort gate)” value does the source give for “QVQLVESWGGLVQAGGSLRLSCAASGSTFYRYAMGWYRQAPGKERELVAAISRSGGNTFYADSVKGRFTISRDNAKNTVYLQMNSLKQEDTAVYYCAAEAHLACYYRYYGGYGYDYWGQGTQVTVSW” here?
**A.** Its value is “high polyreactivity”.

**Q.** Which “polyreactivity (PSR sort gate)” value does the source give for “QVQLVESWGGLVQAGGSLRLSCAASGSTITAKAMGWYRQAPGKERELVAAITKSGGDTYYADSVKGRFTISRDNAKNTVYLQMNSLKPEDTAVYYCAARIRPYAYRSLYGYWGQGTQVTVSS” here?
**A.** The value was “low polyreactivity”.

**Q.** Which “polyreactivity (PSR sort gate)” value does the source give for “QVQLVESWGGLVQAGGSLRLSCAASGSTMRYYAMGWYRQAPGKERELVAAISSRGGRTYYSDSVKGRFTISRDNAKNTVYLQMNSLKPEDTAVYYCAARARERYYWGQGNQVTVSS” here?
**A.** Its value is “high polyreactivity”.

**Q.** Which “polyreactivity (PSR sort gate)” value does the source give for “QVQLVESWGGLVQAGGSLRLSCADSGRTFTVNAMGWYRQAPGKETEFVAAISGRSGRTSYADSVKGRFTISRDNAKNTVYLQMNCLKPEDTAVYYCNASGGYSTGSRYDYWGQGTQVTVSS” here?
**A.** The value was “high polyreactivity”.

**Q.** For “QVQLVESWGGLVQAGGSLRLSCADSGSIFGYYAMGWSRHAPGKETELVAAISSGGRTDYADSVKGRFTISRDNAKNTVYLQMNSRKQEDTAVYYCAALQRTGPYAGSSGYWGQGTQVTVSS”, which “polyreactivity (PSR sort gate)” value is on record?
**A.** The value was “high polyreactivity”.

**Q.** Which “polyreactivity (PSR sort gate)” value does the source give for “QVQLVESWGGLVQAGGSLRLSCVPPDSSSLTILWDGIDRRLGKKGSWLPVLTSRGVGTYYADSVKGRFTNSRDNAKNTFYLQMNSMKPEDSAVYYCNARYEVFYRYDYWGHGTQVTVSS” here?
**A.** The value was “low polyreactivity”.

**Q.** With “QVQLVESWGGLVQAGGSLRLTCAASGRILWFYSMGWYRQAPGKERELVAAISSSSGRTYYADSVKGRYTISRDNAKNTVSLQMNSLKPEDTAVYYCAATHAVARPLEYDYWGQGTQVTVSS” as the sequence, how does the “polyreactivity (PSR sort gate)” value read?
**A.** Its value is “low polyreactivity”.

**Q.** With “QVQLVESWGGLVQAGGTLRLSCAASGGIFIDYTMGWYRQAPGKERELVAAITRGGSTYYADSVKGRFTISRDNAKNTVYLEMNSLIAEDTAVYYCAARANSPVGHNRFGYWGQGTQVTVSS” as the sequence, how does the “polyreactivity (PSR sort gate)” value read?
**A.** Its value is “low polyreactivity”.

**Q.** Which “polyreactivity (PSR sort gate)” value does the source give for “QVQLVESWGGLVQAGGTLRLSCAASGRILYLNAMGWNRQAPGKEREFVAAISKSGGSTYYADSVKGRFTISRDNAMNSVYLQMNSLKPEDTAVYYCATRYRSAEYDFWGQGTQVTVSS” here?
**A.** The value was “low polyreactivity”.

**Q.** Which “polyreactivity (PSR sort gate)” value does the source give for “QVQLVESWGGLVQAGLSLRLSCAASGIMGWYRQAPGKERELVDAITYTGDSTFYADSVKGRFTISRDNPKNTVYVQINSLKAEDTAVYDCATKYGTSNWYNTYYYWGQGTQVTVSS” here?
**A.** The value was “low polyreactivity”.

**Q.** Which “polyreactivity (PSR sort gate)” value does the source give for “QVQLVESWGGVVQAGVSLRLSCAASGINFYSYAMGWYRQAPGKERELVAAISNNGGSTYADSVKGRFTISRDNAKNTVYLQMNSLKPEDTAVYYCAADPTGGVGFDGYYWGQGTQVSVSS” here?
**A.** Its value is “low polyreactivity”.

**Q.** Which “polyreactivity (PSR sort gate)” value does the source give for “QVQLVESWGRLVQAGGSLRLTCAASGFIFSSYAMGWYRQAPGKERELVAAISQSGGRTYYADSVKGRFTISRDNAKNTVYLQMNSLKPEDTAVYYCNTLYTIGAVYYWGQGTQVTVSS” here?
**A.** Its value is “high polyreactivity”.

**Q.** Which “polyreactivity (PSR sort gate)” value does the source give for “QVQLVESWGVLVQAGGSLRLSCAASGSIIVNYDMGWYRQARGKERELVAAITWGGGRTYYADSVKRRFTISRDNAKNSVYLQMNSLKPEDTAVYYCAADFSWVINPYEYCGQGTQVTVSS” here?
**A.** The value was “low polyreactivity”.

**Q.** Which “polyreactivity (PSR sort gate)” value does the source give for “QVQLVETAAGLVKSGGSLPLSCAASGRIFKRYAMGWYRQAPGQARELVATINLSCGSTYYADSVKGRFTISRDNAKNTGYLQMNSRKPEDTAVYYCAYDAAGAPEGPYDYWGQGTQVTVSS” here?
**A.** Its value is “high polyreactivity”.

**Q.** For “QVQLVETAGGIVQAGGSLRLSCAASGRTNKYYAMGWYRQAPGKEREWVAVISWSGGSTYYADSVKGRFTISRDNAKNTVYLQMNSLKPEETAVYYCAARKRAQQGTRDHDYWGQGTQVTVSS”, which “polyreactivity (PSR sort gate)” value is on record?
**A.** The value was “high polyreactivity”.

**Q.** Which “polyreactivity (PSR sort gate)” value does the source give for “QVQLVETGAGLVQAGGSLRLSCAASGRTFDDNAMGWSRQATGEVRELVAAISSTGSTNYADSVKGRFTISRDNAKNTVYFQMNSLKPEDTAVYYCNTDRGHERAFYYWGQGTQVTVSS” here?
**A.** Its value is “low polyreactivity”.

**Q.** For “QVQLVETGGCLVQAGGSLRLSCAASGSTFYLYAMGWNRQAPGKETDLVASISQSGGSTIYADSVKGRFTISRDNAKNTVYLHMNSLKPEDTAVYYFAAGAGYFRYPRSGVWYVTLYDYWGEGTQVTVSS”, which “polyreactivity (PSR sort gate)” value is on record?
**A.** Its value is “high polyreactivity”.

**Q.** Which “polyreactivity (PSR sort gate)” value does the source give for “QVQLVETGGGIVQAGGRLRLTCAASGSSFYSYAMGWYRQAPGKEMELVAAITTSGGNTLYADSVKGRFTISRDNAKNTVDLQMNSLKPEDTADYYCAADVFRGGDYEYDYWGQGTQVTVSS” here?
**A.** Its value is “low polyreactivity”.

**Q.** Which “polyreactivity (PSR sort gate)” value does the source give for “QVQLVETGGGIVQAGGSLRLSCAASGITFQSNTMGWYRQSPGKERELVAAITWTGGRTYYADSVKGRFTISRDNAKNTVYLQMNSLTPEDTAVYYCNADGYAICYNGKLDYWGQGTQVTVSS” here?
**A.** The value was “high polyreactivity”.

**Q.** For “QVQLVETGGGLVHAGGSLRLSCAASGSIFQGHAMGWYRQAPGKERELVAAISRNGGRTYYADSVKGRFTISRDNAKNTVYLQMNSLKPEDTAVYYCAAYHNVEYDYWGQGTQVTVSS”, which “polyreactivity (PSR sort gate)” value is on record?
**A.** The value was “high polyreactivity”.

**Q.** For “QVQLVETGGGLVHAGVSLRLSCAASGSILSLNAMGWYRQAPGKERELVAVISNCGGSTYYADSVKGRFTISRDNAKNTVYFQMKSLNPEDTAVYYCAVALKYQRRYYYWGQGTQVTVSS”, which “polyreactivity (PSR sort gate)” value is on record?
**A.** The value was “high polyreactivity”.

**Q.** For “QVQLVETGGGLVQAGCSLRLSCASSGFIFVRNAMGRYRQAPGIERELVATINSGGGTNYADSVKWRFTISRDNAKNSVYFQMNSLKPDDTAVYYCAAGQTSPERYGLGYWGQGSQVTVSS”, which “polyreactivity (PSR sort gate)” value is on record?
**A.** Its value is “low polyreactivity”.

**Q.** With “QVQLVETGGGLVQAGGSLRISCAASGFTFSSYVMGWYRQAPGKERELVAAITRGGGSTYYADSVKGRFTISRDNAKNTVYLQMNRLKPEDTAVYYCAARGWRYSYTSVLFDYCGQGTQVTVSS” as the sequence, how does the “polyreactivity (PSR sort gate)” value read?
**A.** The value was “high polyreactivity”.

**Q.** For “QVQLVETGGGLVQAGGSLRISCAASGIIFRNYAKGWYTQAPGKERELVADISWSGGTTYYADSVKGRFTISRDNEKHTVYLQMNSLKPEDTAVYYCAASSYRRQYGYWGQGTQVTVSS”, which “polyreactivity (PSR sort gate)” value is on record?
**A.** The value was “high polyreactivity”.

**Q.** Which “polyreactivity (PSR sort gate)” value does the source give for “QVQLVETGGGLVQAGGSLRLRCAASGSIFVPYTMGWYRQAPGKERELVASISYSGGTTYYADSEKGRFTISRDNAKNTVYLQMNSLKPEDTAVYYCAADWDESYSYRRYRHYDYWGQGTQLTVSS” here?
**A.** The value was “low polyreactivity”.

**Q.** Which “polyreactivity (PSR sort gate)” value does the source give for “QVQLVETGGGLVQAGGSLRLSCAASARIFLGYTMGWYRKAPGKEMELVASITWSGGSTYYADSVKGRFTISRDNAKNTVYLQMNRLKPDVTAVYYCNAVYWVARGRYDYWGQGTQVTVSS” here?
**A.** The value was “high polyreactivity”.

**Q.** For “QVQLVETGGGLVQAGGSLRLSCAASGFIFAYNAMGWYRQAPGKERELVAAISWSGGSTYYADSVKGRFTISRDNAKITVYLQMNCLKPEDTAVYYCNAVSYFGARYDYWGQGTQVTVSS”, which “polyreactivity (PSR sort gate)” value is on record?
**A.** Its value is “high polyreactivity”.

**Q.** Which “polyreactivity (PSR sort gate)” value does the source give for “QVQLVETGGGLVQAGGSLRLSCAASGFIFSTYAMGWSRQAPGKERELVAAISWSGGRTNYADSVKGRFTISRDHAKNTVYLQMNSLKPEDTAVYYCAVGGERGARIGSNHRGSRYDYWGQGTQVTVSS” here?
**A.** The value was “high polyreactivity”.

**Q.** With “QVQLVETGGGLVQAGGSLRLSCAASGFTFGANVMGWYRPAPGKESELVAGITRSGDSTYYADSVKGRFTISRDNAKNTVYLQMNILKPEDTAVYYCAADVYDGEYILDYDYWGQGTQVTVSS” as the sequence, how does the “polyreactivity (PSR sort gate)” value read?
**A.** The value was “low polyreactivity”.

**Q.** Which “polyreactivity (PSR sort gate)” value does the source give for “QVQLVETGGGLVQAGGSLRLSCAASGFTFKLYAMGWYRQAPGKERVLVAAISSSGGRTYYADSVKGRFTISRDNAKNTVYLQMNSLKPEDTAVYYCNAVRTVNDYHYDYWGQGTQVTVSS” here?
**A.** Its value is “high polyreactivity”.
